One molecule from US20110002945A1, “Use of immunoglobulin heavy and light chains or fragments thereof to bind to aggregated amyloidogenic proteins” (published 2011) can be followed below.

One test concerns the target fibrillar Aβ1-40 peptide (Homo sapiens (Human), UniProt P05067). The test can be described thus: EuLISA on plate-immobilized fibrils. On the procedure:
High binding activated microtiter plate wells were coated with 400 ng of fibrillar Aβ1-40 peptide, which was prepared by aggregation in 10 mM PBS of Aβ1-40 peptide, previously disaggregated by the trifluoro acetic acid/hexafluoroisopropanol procedure [Adekar et al., J. Biol. Chem. 285, 1066-1074 (2010)]. After blocking with 1% bovine serum albumin (BSA), F1 was serially diluted in 10 mM PBS/1% BSA and applied in 100 μl aliquots to coated wells. After incubation for 1 hr, wells were washed, and incubated with biotinylated goat anti-human IgG as a secondary antibody for 1 hr. Thereafter bound HC F1 was determined with a Eu³⁺-streptavidine conjugate followed by the release enhancement reagent (EuLISA) and measuring the amount of Eu³⁺ by time-resolved fluorescence (Victor 1420 multilabel counter) against a standard curve established with known concentrations of Eu³⁺.

For test [1], the target named is dityrosine cross-linked Aβ preparation (CAPS) (Homo sapiens (Human), UniProt P05067, dityrosine cross-linked). Briefly: EuLISA on plate-immobilized CAPS.
In a further test the target is T1, IAPP fibrils (Homo sapiens (Human), UniProt P10997).
T1 peptide: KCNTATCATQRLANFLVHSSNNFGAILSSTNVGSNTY
Briefly: EuLISA on plate-immobilized fibrils (column heads of c9 and c10 seem swapped).

B1: antibody heavy chain F1 (other)
heavy: AMDWTWSILFLVAAATGAHSQVQLVQSGAEVKKPGASVKVSCKASGYTFSSNGIIWVRQAPGQGLEWLGWISGYNGKTRYAQKVQGRVTITTDTSTSTAYMELRSLRSDDTAVYYCAREKTMVRGAISGYSDYWGQGTLVTVSSASTKGPSVFPLAPSSKSTSGGTAALGCLVKDYFPEPVTVSWNSGALTSGVHTFPAVLQSSGLYSLSSVVTVPSSSLGTQTYICNVNHKPSNTKVDKKRVEPKSCDKTHTCPPCPAPELLGGPSVFLFPPKPKDTLMISRTPEVTCVVVDVSHEDPEVKFNWYVDGVEVHNAKTKPREEQYNSTYRVVSVLTVLDHQDWLNGKEYKCKVSNKALPAPIEKTISKAKGQPREPQVYTLPPSREELMTKNQVSLTCLVKGFYPSDIAVEWESNGQPENNYKTTPPVLDSDGSFFLYSKLTVDKSRWQQGNVFSCSVMHEALHNHYTQKSLSLSPGK
B1: the results for the EC50 (with fibrillar Aβ1-40 peptide; in test [1]; with IAPP fibrils) were 0.023 µM, 0.028 µM and 0.04 µM, respectively.
